The values below come from the supplement of paper PMC6755084.

B1: F1*; the commonest letter at each place (parent)
chain: GAGACCGCAACTGAAAAGTTGTTATCACTTGTCGTAAGACACTTTGGATGGGTTGAAGTTCTGCACGTAGAAGCAAAAGGC

The series covers variants of B1. Briefly: fraction ligated after 30 min (ligated reads / total reads); higher = more ligase activity. The settings on record: with F1*sub RNA substrate (template-directed ligation), 42 °C. In a few lines:
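Ribozyme variants were transcribed with T7 from PCR-amplified oligo-pool templates and gel-purified. Ligated and unligated bands, separated on gel, were reverse transcribed with barcoded primers and sequenced on a MiSeq, with core bases filtered at quality ≥20. Fraction ligated per variant was computed as ligated reads divided by total reads.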
Consider GAGACCGCAACTGAAAAGTTGTTATCACCTGTCGTAAGACACGTTGGATGGGTTGAAGTTCTGCACGTAGAAGCAAAAGGC [T29C T43G], for which the fraction ligated was 0.815.
For the variant GAGACCGCAACTGAAAAGTTGTTATCACCTGTCGTAAGACACCTTGGATGGGTTGAAGTTCTGCACGTAGAAGCAAAAGGC [T29C T43C], the fraction ligated worked out at 0.802.
The result for GAGACCGCAACTGAAAAGTTGTTATCACCTGTCGTAAGACACATTGGATGGGTTGAAGTTCTGCACGTAGAAGCAAAAGGC [T29C T43A] reads 0.839.
The result for GAGACCGCAACTGAAAAGTTGTTATCACCTGTCGTAAGACACTATGGATGGGTTGAAGTTCTGCACGTAGAAGCAAAAGGC [T29C T44A] reads 0.802.
Turning to GAGACCGCAACTGAAAAGTTGTTATCACCTGTCGTAAGACACTCTGGATGGGTTGAAGTTCTGCACGTAGAAGCAAAAGGC [T29C T44C], the fraction ligated is 0.822.
The result for GAGACCGCAACTGAAAAGTTGTTATCACCTGTCGTACGACACTTTGGATGGGTTGAAGTTCTGCACGTAGAAGCAAAAGGC [T29C A37C] reads 0.828; that for GAGACCGCAACTGAAAAGTTGTTATCACCTGTCGTAGGACACTTTGGATGGGTTGAAGTTCTGCACGTAGAAGCAAAAGGC [T29C A37G], 0.824; that for GAGACCGCAACTGAAAAGTTGTTATCACCTGTCGTATGACACTTTGGATGGGTTGAAGTTCTGCACGTAGAAGCAAAAGGC [T29C A37T], 0.833.
On to GAGACCGCAACTGAAAAGTTGTTATCACCTGTCGTAAGACATTTTGGATGGGTTGAAGTTCTGCACGTAGAAGCAAAAGGC [T29C C42T], for which the fraction ligated is 0.828.
Consider GAGACCGCAACTGAAAAGTTGTTATCACCTGTCGTAAGACAGTTTGGATGGGTTGAAGTTCTGCACGTAGAAGCAAAAGGC [T29C C42G], for which the fraction ligated was found to be 0.818.
The result for GAGACCGCAACTGAAAAGTTGTTATCACCTGTCGTAAGACAATTTGGATGGGTTGAAGTTCTGCACGTAGAAGCAAAAGGC [T29C C42A] reads 0.85.
The result for GAGACCGCAACTGAAAAGTTGTTATCACCTGCCGTAAGACACTTTGGATGGGTTGAAGTTCTGCACGTAGAAGCAAAAGGC [T29C T32C] reads 0.764.
For GAGACCGCAACTGAAAAGTTGTTATCACCTGGCGTAAGACACTTTGGATGGGTTGAAGTTCTGCACGTAGAAGCAAAAGGC [T29C T32G], the fraction ligated is 0.794.
The result for GAGACCGCAACTGAAAAGTTGTTATCACCTGACGTAAGACACTTTGGATGGGTTGAAGTTCTGCACGTAGAAGCAAAAGGC [T29C T32A] reads 0.804; that for GAGACCGCAACTGAAAAGTTGTTATCACATGTCGTAAGACACTTTGGACGGGTTGAAGTTCTGCACGTAGAAGCAAAAGGC [T29A T49C], 0.66; that for GAGACCGCAACTGAAAAGTTGTTATCACATGTCGTAAGACACTTTGGAGGGGTTGAAGTTCTGCACGTAGAAGCAAAAGGC [T29A T49G], 0.789.
The result for GAGACCGCAACTGAAAAGTTGTTATCACCTGTCGTAAGACACTTTGGATGGGTTGCAGTTCTGCACGTAGAAGCAAAAGGC [T29C A56C] reads 0.758; that for GAGACCGCAACTGAAAAGTTGTTATCACCTGTCGTAAGACACTTTGGATGGGTTGGAGTTCTGCACGTAGAAGCAAAAGGC [T29C A56G], 0.788; that for GAGACCGCAACTGAAAAGTTGTTATCACCTGTCGTAAGACACTTTGGATGGGTTGTAGTTCTGCACGTAGAAGCAAAAGGC [T29C A56T], 0.795.
As to GAGACCGCAACTGAAAAGTTGTTATCACCTGTCCTAAGACACTTTGGATGGGTTGAAGTTCTGCACGTAGAAGCAAAAGGC [T29C G34C], the fraction ligated was determined as 0.793.
The result for GAGACCGCAACTGAAAAGTTGTTATCACCTGTCTTAAGACACTTTGGATGGGTTGAAGTTCTGCACGTAGAAGCAAAAGGC [T29C G34T] reads 0.823; that for GAGACCGCAACTGAAAAGTTGTTATCACCTGTCATAAGACACTTTGGATGGGTTGAAGTTCTGCACGTAGAAGCAAAAGGC [T29C G34A], 0.827.
The result for GAGACCGCAACTGAAAAGTTGTTATCACCTGTCGTAAGTCACTTTGGATGGGTTGAAGTTCTGCACGTAGAAGCAAAAGGC [T29C A39T] reads 0.807; that for GAGACCGCAACTGAAAAGTTGTTATCACCTGTCGTAAGCCACTTTGGATGGGTTGAAGTTCTGCACGTAGAAGCAAAAGGC [T29C A39C], 0.819.
With GAGACCGCAACTGAAAAGTTGTTATCACCTGTCGTAAGGCACTTTGGATGGGTTGAAGTTCTGCACGTAGAAGCAAAAGGC [T29C A39G], the fraction ligated stood at 0.824.
Consider GAGACCGCAACTGAAAAGTTGTTATCACCTGTCGGAAGACACTTTGGATGGGTTGAAGTTCTGCACGTAGAAGCAAAAGGC [T29C T35G], for which the fraction ligated was found to be 0.831.
The result for GAGACCGCAACTGAAAAGTTGTTATCACCTGTCGAAAGACACTTTGGATGGGTTGAAGTTCTGCACGTAGAAGCAAAAGGC [T29C T35A] reads 0.843; that for GAGACCGCAACTGAAAAGTTGTTATCACCTGTCGCAAGACACTTTGGATGGGTTGAAGTTCTGCACGTAGAAGCAAAAGGC [T29C T35C], 0.801.
The result for GAGACCGCAACTGAAAAGTTGTTATCACCTGTCGTAAGACACTTTTGATGGGTTGAAGTTCTGCACGTAGAAGCAAAAGGC [T29C G46T] reads 0.779; that for GAGACCGCAACTGAAAAGTTGTTATCACCTGTCGTAAGACACTTTAGATGGGTTGAAGTTCTGCACGTAGAAGCAAAAGGC [T29C G46A], 0.804.
On to GAGACCGCAACTGAAAAGTTGTTATCACCTGTCGTAAGACACTTTCGATGGGTTGAAGTTCTGCACGTAGAAGCAAAAGGC [T29C G46C], for which the fraction ligated is 0.775.
The result for GAGACCGCAACTGAAAAGTTGTTATCACCTGTCGTAAGATACTTTGGATGGGTTGAAGTTCTGCACGTAGAAGCAAAAGGC [T29C C40T] reads 0.818; that for GAGACCGCAACTGAAAAGTTGTTATCACCTGTCGTAAGAGACTTTGGATGGGTTGAAGTTCTGCACGTAGAAGCAAAAGGC [T29C C40G], 0.824.
The result for GAGACCGCAACTGAAAAGTTGTTATCACCTGTCGTAAGAAACTTTGGATGGGTTGAAGTTCTGCACGTAGAAGCAAAAGGC [T29C C40A] reads 0.791.
